According to US20120014957A1 (AbbVie / Abbott, published 2012):

Assays:
CD-20 on cells [1] = target: T1, CD-20 on cells (UniProt P11836 1-297, limits assumed); assay: flow cytometry on cells, antibody at 2 ug/mL
T1 construct: whole, on cells
T1 sequence (looked up): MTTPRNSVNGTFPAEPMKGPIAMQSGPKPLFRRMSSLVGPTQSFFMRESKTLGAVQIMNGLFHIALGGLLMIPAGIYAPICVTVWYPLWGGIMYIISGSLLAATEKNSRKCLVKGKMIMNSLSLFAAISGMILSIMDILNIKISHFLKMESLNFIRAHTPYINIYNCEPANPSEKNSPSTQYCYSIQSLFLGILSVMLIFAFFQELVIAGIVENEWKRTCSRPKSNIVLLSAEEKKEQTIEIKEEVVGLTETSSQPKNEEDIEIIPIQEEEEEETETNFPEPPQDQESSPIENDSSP
Experimental: (§1) Stable cell lines overexpressing a cell-surface antigen of interest or human tumor cell lines were harvested from tissue culture flasks and resuspended in phosphate buffered saline (PBS) containing 5% fetal bovine serum (PBS/FBS). Prior to staining, human tumor cells were incubated on ice with (100 μl) human IgG at 5 μg/ml in PBS/FCS. 1−5×10⁵ cells were incubated with antibody or DVD-Ig (2 μg/mL) in PBS/FBS for 30-60 minutes on ice. Cells were washed twice and 100 μl of F(ab′)2 goat anti human IgG, Fcγ-phycoerythrin (1:200 dilution in PBS) (Jackson ImmunoResearch, West Grove, Pa., Cat. #109-116-170) was added. After a 30 minute incubation on ice, cells were washed twice and resuspended in PBS/FBS. Fluorescence was measured using a Becton Dickinson FACSCalibur (Becton Dickinson, San Jose, Calif.).
(§2) The geometric mean is the n root of the multiplication product of n fluorescent signals (a1×a2×a3 . . . an). With log-transformed data the geometric mean is used to normalize the weighting of the data distribution.

[2] = target: T2, Recombinant Human MSP R/Ron (human, UniProt Q04912 25-571, limits assumed); assay: SPR (Biacore)
T2 construct: Bought reagent
Experimental: (§3) The BIACORE assay (Biacore, Inc, Piscataway, N.J.) determines the affinity of antibodies or DVD-Ig with kinetic measurements of on-rate and off-rate constants. Binding of antibodies or DVD-Ig to a target antigen (for example, a purified recombinant target antigen) was determined by surface plasmon resonance-based measurements with a Biacore® 1000 or 3000 instrument (Biacore® AB, Uppsala, Sweden) using running HBS-EP (10 mM HEPES [pH 7.4], 150 mM NaCl, 3 mM EDTA, and 0.005% surfactant P20) at 25° C. All chemicals were obtained from Biacore® AB (Uppsala, Sweden) or otherwise from a different source as described in the text. For example, approximately 5000 RU of goat anti-mouse IgG, (Fcγ), fragment specific polyclonal antibody (Pierce Biotechnology Inc, Rockford, Ill.) diluted in 10 mM sodium acetate (pH 4.5) was directly immobilized across a CM5 research grade biosensor chip using a standard amine coupling kit according to manufacturer's instructions and procedures at 25 μg/ml. Unreacted moieties on the biosensor surface were blocked with ethanolamine. Modified carboxymethyl dextran surface in flowcell 2 and 4 was used as a reaction surface. Unmodified carboxymethyl dextran without goat anti-mouse IgG in flow cell 1 and 3 was used as the reference surface. For kinetic analysis, rate equations derived from the 1:1 Langmuir binding model were fitted simultaneously to association and dissociation phases of all eight injections (using global fit analysis) with the use of Biaevaluation 4.0.1 software. Purified antibodies or DVD-Ig were diluted in HEPES-buffered saline for capture across goat anti-mouse IgG specific reaction surfaces. Antibodies or DVD-Ig to be captured as a ligand (25 μg/ml) were injected over reaction matrices at a flow rate of 5 μl/min. The association and dissociation rate constants, kₒₙ (M⁻¹s⁻¹) and koff (s⁻¹) were determined under a continuous flow rate of 25 μl/min. Rate constants were derived by making kinetic binding measurements at different antigen concentrations ranging from 10-200 nM. The equilibrium dissociation constant (M) of the reaction between antibodies or DVD-Igs and the target antigen was then calculated from the kinetic rate constants by the following formula: KD=koff/kₒₙ. Binding was recorded as a function of time and kinetic rate constants were calculated.

Recombinant Human DLL4 = target: T3, Recombinant Human DLL4 (human, UniProt Q9NR61 27-524); assay: SPR (Biacore)
T3 construct: Bought reagent of the Biacore analyses
Experimental: as §3

DLL4 on cells = target: T4, DLL4 on cells (UniProt Q9NR61 27-685, limits assumed); assay: flow cytometry on cells, antibody at 2 ug/mL
T4 construct: whole, on cells
Experimental: as §1, §2

Recombinant Human PlGF = target: T5, Recombinant Human PlGF (human, UniProt P49763-2 21-149, limits assumed); assay: SPR (Biacore)
T5 construct: Bought reagent; also called P1GF
T5 sequence (looked up): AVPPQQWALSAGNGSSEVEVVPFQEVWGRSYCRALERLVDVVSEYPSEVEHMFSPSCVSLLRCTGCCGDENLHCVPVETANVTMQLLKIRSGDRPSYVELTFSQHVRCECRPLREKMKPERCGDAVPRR
Experimental: as §3

IGFR on cells [3] = target: T6, IGFR on cells (UniProt P08069 31-1367, limits assumed); assay: flow cytometry on cells, DVD-Ig at 2 ug/mL
T6 construct: whole, on cells; also called IGF1R
Experimental: as §1, §2

CD-20 on cells [4] = target: T1, CD-20 on cells; assay: flow cytometry on cells, DVD-Ig at 2 ug/mL
Experimental: as §1, §2

[5] = target: T7, Recombinant Human VEGF 165 (human, UniProt P15692-4 27-191); assay: SPR (Biacore)
T7 construct: Bought reagent
T7 sequence (P15692 other isoform, or with tags, fused parts or gaps limits assumed): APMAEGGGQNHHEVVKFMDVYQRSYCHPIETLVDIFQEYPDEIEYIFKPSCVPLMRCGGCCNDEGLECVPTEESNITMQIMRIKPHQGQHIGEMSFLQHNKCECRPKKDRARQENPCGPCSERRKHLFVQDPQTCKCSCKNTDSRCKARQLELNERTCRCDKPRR
Experimental: as §3

IGFR on cells [6] = target: T6, IGFR on cells; assay: flow cytometry on cells, antibody at 2 ug/mL
Experimental: as §1, §2

B1: AB001 (antibody, V domains shown)
VH: QVQLQQPGAELVKPGASVKMSCKASGYTFTSYNMHWVKQTPGRGLEWIGAIYPGNGDTSYNQKFKGKATLTADKSSSTAYMQLSSLTSEDSAVYYCARSTYYGGDWYFNVWGAGTTVTVSA
VL: QIVLSQSPAILSPSPGEKVTMTCRASSSVSYIHWFQQKPGSSPKPWIYATSNLASGVPVRFSGSGSGTSYSLTISRVEAEDAATYYCQQWTSNPPTFGGGTKLEIKR
notes: Parent antibody; also called CD-20; AB001VH
FACS Geometric Mean (CD-20 on cells [1]): 1400

B2: AB005 (antibody, V domains shown)
VH: EVQLVQSGGGLVKPGGSLRLSCAASGFTFSSYAMHWVRQAPGKGLEWVAVISYDGSNKYYADSVKGRFTISRDNSKNTLYLQMNSLRAEDTAVYYCARFSGWPNNYYYYGMDVWGQGTTVTVSS
VL: DVVMTQSPLSLPVTPGEPASISCRSSQSLLHSNGFNYVDWYLQKPGQSPHLLIYFGSYRASGVPDRFSGSGSGTDFTLKISRVEAEDVGVYYCMQALQTPPWTFGQGTKVEIRR
notes: Parent antibody; also called RON
Kd [2]: 20200 pM | koff [2]: 0.000739 s⁻¹ | kon [2]: 36600 M⁻¹ s⁻¹

B3: AB015 (antibody, V domains shown)
VH: EVQLVESGGGLVQPGGSLRLSCAASGFTFTDNWISWVRQAPGKGLEWVGYISPNSGFTYYADSVKGRFTISADTSKNTAYLQMNSLRAEDTAVYYCARDNFGGYFDYWGQGTLVTVSS
VL: DIQMTQSPSSLSASVGDRVTITCRASQDVSTAVAWYQQKPGKAPKLLIYSASFLYSGVPSRFSGSGSGTDFTLTISSLQPEDFATTYYCQQSYTGTVTFGQGTKVEIKR
notes: Parent antibody; also called DLL4; AB015VH
Kd (Recombinant Human DLL4): 414 pM | koff (Recombinant Human DLL4): 0.000166 s⁻¹ | kon (Recombinant Human DLL4): 400000 M⁻¹ s⁻¹ | FACS Geometric Mean (DLL4 on cells): 308

B4: DVD1332 (bispecific antibody, human IgG1, kappa)
heavy: not shown
light: DIVLTQSPDSLAVSLGERVTMNCKSSQSLLNSGMRKSFLAWYQQKPGQSPKLLIYWASTRESGVPDRFTGSGSGTDFTLTISSVQAEDVAVYYCKQSYHLFTFGSGTKLEIKRTVAAPDIQMTQSPSSLSASVGDRVTITCRASEDIYNALAWYQQKPGKAPKLLIYNTDTLHTGVPSRFSGSGSGTDYTLTISSLQPEDFATYFCQHYFHYPRTFGQGTKVEIKRTVAAPSVFIFPPSDEQLKSGTASVVCLLNNFYPREAKVQWKVDNALQSGNSQESVTEQDSKDSTYSLSSTLTLSKADYEKHKVYACEVTHQGLSSPVTKSFNRGEC
notes: DVD-Ig; also called DVD1332H; DVD1332L
Kd (Recombinant Human PlGF): 55 pM | koff (Recombinant Human PlGF): 0.00017 s⁻¹ | kon (Recombinant Human PlGF): 3e+06 M⁻¹ s⁻¹

B5: DVD1324 (bispecific antibody, human IgG1, kappa)
heavy: not shown
light: DIQMTQFPSSLSASVGDRVTITCRASQGIRNDLGWYQQKPGKAPKRLIYAASRLHRGVPSRFSGSGSGTEFTLTISSLQPEDFATYYCLQHNSYPCSFGQGTKLEIKRTVAAPDIQMTQSPSSLSASVGDRVTITCRASEDIYNALAWYQQKPGKAPKLLIYNTDTLHTGVPSRFSGSGSGTDYTLTISSLQPEDFATYFCQHYFHYPRTFGQGTKVEIKRTVAAPSVFIFPPSDEQLKSGTASVVCLLNNFYPREAKVQWKVDNALQSGNSQESVTEQDSKDSTYSLSSTLTLSKADYEKHKVYACEVTHQGLSSPVTKSFNRGEC
notes: DVD-Ig; also called DVD1324H; DVD1324L
FACS Geometric Mean N-terminal (IGFR on cells [3]): 825

B6: DVD1334 (bispecific antibody, human IgG1, kappa)
heavy: not shown
light: QAVLTQPSSLSAPPGASASLTCTLRSGFNVDSYRISWYQQKPGSPPQYLLRYKSDSDKQQGSGVPSRFSGSKDASANAGILLISGLQSEDEADYYCMIWHSSAWVFGGGTKLTVLRTVAAPDIQMTQSPSSLSASVGDRVTITCRASEDIYNALAWYQQKPGKAPKLLIYNTDTLHTGVPSRFSGSGSGTDYTLTISSLQPEDFATYFCQHYFHYPRTFGQGTKVEIKRTVAAPSVFIFPPSDEQLKSGTASVVCLLNNFYPREAKVQWKVDNALQSGNSQESVTEQDSKDSTYSLSSTLTLSKADYEKHKVYACEVTHQGLSSPVTKSFNRGEC
notes: DVD-Ig; also called DVD1334H; DVD1334L
Kd [2]: 5700 pM | koff [2]: 0.0067 s⁻¹ | kon [2]: 1.2e+06 M⁻¹ s⁻¹

B7: DVD1336 (bispecific antibody, human IgG1, kappa)
heavy: not shown
light: QIVLSQSPAILSPSPGEKVTMTCRASSSVSYIHWFQQKPGSSPKPWIYATSNLASGVPVRFSGSGSGTSYSLTISRVEAEDAATYYCQQWTSNPPTFGGGTKLEIKRTVAAPDIQMTQSPSSLSASVGDRVTITCRASEDIYNALAWYQQKPGKAPKLLIYNTDTLHTGVPSRFSGSGSGTDYTLTISSLQPEDFATYFCQHYFHYPRTFGQGTKVEIKRTVAAPSVFIFPPSDEQLKSGTASVVCLLNNFYPREAKVQWKVDNALQSGNSQESVTEQDSKDSTYSLSSTLTLSKADYEKHKVYACEVTHQGLSSPVTKSFNRGEC
notes: DVD-Ig; also called DVD1336H; DVD1336L
FACS Geometric Mean N-terminal (CD-20 on cells [4]): 754

B8: AB047 (antibody, V domains shown)
VH: QVQLQQSGAELVKPGASVKISCKASGYTFTDYYINWVKLAPGQGLEWIGWIYPGSGNTKYNEKFKGKATLTIDTSSSTAYMQLSSLTSEDTAVYFCVRDSPFFDYWGQGTLLTVSS
VL: DIVLTQSPDSLAVSLGERVTMNCKSSQSLLNSGMRKSFLAWYQQKPGQSPKLLIYWASTRESGVPDRFTGSGSGTDFTLTISSVQAEDVAVYYCKQSYHLFTFGSGTKLEIKR
notes: Parent antibody; also called PlGF; AB047VH
Kd (Recombinant Human PlGF): 28.2 pM | koff (Recombinant Human PlGF): 0.000108 s⁻¹ | kon (Recombinant Human PlGF): 3.8e+06 M⁻¹ s⁻¹

B9: DVD1328 (bispecific antibody, human IgG1, kappa)
heavy: not shown
light: DIQMTQSPSSLSASVGDRVTITCSASQDISNYLNWYQQKPGKAPKVLIYFTSSLHSGVPSRFSGSGSGTDFTLTISSLQPEDFATYYCQQYSTVPWTFGQGTKVEIKRTVAAPDIQMTQSPSSLSASVGDRVTITCRASEDIYNALAWYQQKPGKAPKLLIYNTDTLHTGVPSRFSGSGSGTDYTLTISSLQPEDFATYFCQHYFHYPRTFGQGTKVEIKRTVAAPSVFIFPPSDEQLKSGTASVVCLLNNFYPREAKVQWKVDNALQSGNSQESVTEQDSKDSTYSLSSTLTLSKADYEKHKVYACEVTHQGLSSPVTKSFNRGEC
notes: DVD-Ig; also called DVD1328H; DVD1328L
Kd [5]: 80 pM | koff [5]: 7.7e-05 s⁻¹ | kon [5]: 960000 M⁻¹ s⁻¹

B10: AB011 (antibody, V domains shown)
VH: EVQLLESGGGLVQPGGSLRLSCTASGFTFSSYAMNWVRQAPGKGLEWVSAISGSGGTTFYADSVKGRFTISRDNSRTTLYLQMNSLRAEDTAVYYCAKDLGWSDSYYYYYGMDVWGQGTTVTVSS
VL: DIQMTQFPSSLSASVGDRVTITCRASQGIRNDLGWYQQKPGKAPKRLIYAASRLHRGVPSRFSGSGSGTEFTLTISSLQPEDFATYYCLQHNSYPCSFGQGTKLEIKR
notes: Parent antibody; also called IGFR; IGF1R
FACS Geometric Mean (IGFR on cells [6]): 535

B11: DVD1330 (bispecific antibody, human IgG1, kappa)
heavy: not shown
light: DIQMTQSPSSLSASVGDRVTITCRASQDVSTAVAWYQQKPGKAPKLLIYSASFLYSGVPSRFSGSGSGTDFTLTISSLQPEDFATTYYCQQSYTGTVTFGQGTKVEIKRTVAAPDIQMTQSPSSLSASVGDRVTITCRASEDIYNALAWYQQKPGKAPKLLIYNTDTLHTGVPSRFSGSGSGTDYTLTISSLQPEDFATYFCQHYFHYPRTFGQGTKVEIKRTVAAPSVFIFPPSDEQLKSGTASVVCLLNNFYPREAKVQWKVDNALQSGNSQESVTEQDSKDSTYSLSSTLTLSKADYEKHKVYACEVTHQGLSSPVTKSFNRGEC
notes: DVD-Ig; also called DVD1330H; DVD1330L
Kd (Recombinant Human DLL4): 380 pM | koff (Recombinant Human DLL4): 0.0002 s⁻¹ | kon (Recombinant Human DLL4): 520000 M⁻¹ s⁻¹
